Consider one molecule from US20030017568A1, “Smooth muscle myosin phosphatase associated kinase” (priority 2001, published 2003).

For this test, the system named is permealized rabbit longitudinal ileum smooth muscle strips. Kind of test: Force in permeabilized rabbit longitudinal ileum smooth muscle strips (Ca2+-sensitization). As to the method: Instead, when rN-ZIP^1-320 kinase is added a 40% increase in muscular force is produced at the same submaximal calcium concentration.

B1: rN-ZIP^1-320 kinase: recombinant 38 kDa GST-fusion protein of the N-terminal region (1-320) of ZIP kinase, expressed in E. coli, constitutively active (protein, UniProt O43293 1-320, looked up, fragment)
chain: MSTFRQEDVEDHYEMGEELGSGQFAIVRKCRQKGTGKEYAAKFIKKRRLSSSRRGVSREEIEREVNILREIRHPNIITLHDIFENKTDVVLILELVSGGELFDFLAEKESLTEDEATQFLKQILDGVHYLHSKRIAHFDLKPENIMLLDKNVPNPRIKLIDFGIAHKIEAGNEFKNIFGTPEFVAPEIVNYEPLGLEADMWSIGVITYILLSGASPFLGETKQETLTNISAVNYDFDEEYFSNTSELAKDFIRRLLVKDPKRRMTIAQSLEHSWIKAIRRRNVRGEDSGRKPERRRLKTTRLKEYTIKSHSSLPPNNSYA
modifications: GST fusion
As for B1, the “Increase in muscular force” value (at the same submaximal calcium concentration) is 40%. Moreover, for the setting “permeabilized ileum strips, no calcium”, the “Contraction in the absence of calcium” value was “does not cause contraction”.
